Measured values: patent US20250271431A1 (NEW ERA MABS, published 2025)
Where “and” joins values, the source holds several entries; their conditions need not be identical. Equal entries are not always repeated. Where two headings read alike, the source gives them in different places.

What was measured:
[1] = target: T1, SARS-CoV-2 Spike protein-RBD-mFc (Acrobiosystem; SPD-C5259) (SARS-CoV-2; mouse, UniProt P0DTC2 319-541)
[2] = target: epitope sequence SEQ ID No 39 ([…]) (SARS-CoV-2); experiment: RepliTope peptide microarray, Cy5 fluorescence
Procedure: (§1) The peptide library consisted of 15-meric peptides representing overlapping peptide scans. […] Incubation took place for 1 hour at 30° C. Biotin-labeled secondary antibody (mouse-anti-camelid IgG) was added at 2 μg/mL and incubated for 1 hour. Detection was visualized using Cy5-labeled streptavidin at 0.1 μg/mL incubated for 1 hour. After washing and drying, the slides were scanned with a high-resolution laser scanner at 635 nm to obtain fluorescence intensity profiles. Resulting images were quantified to yield a mean pixel value for each peptide.

[3] = target: epitope sequence SEQ ID No 28 ([…]) (SARS-CoV-2); experiment: RepliTope peptide microarray, Cy5 fluorescence
Procedure: as §1

[4] = target: epitope sequence SEQ ID No 36 ([…]) (SARS-CoV-2); experiment: RepliTope peptide microarray, Cy5 fluorescence
Procedure: as §1

[5] = target: epitope sequence SEQ ID No 21 ([…]) (SARS-CoV-2); experiment: RepliTope peptide microarray, Cy5 fluorescence
Procedure: as §1

[6] = target: epitope sequence SEQ ID No 29 ([…]) (SARS-CoV-2); experiment: RepliTope peptide microarray, Cy5 fluorescence
Procedure: as §1

[7] = target: epitope sequence SEQ ID No 38 ([…]) (SARS-CoV-2); experiment: RepliTope peptide microarray, Cy5 fluorescence
Procedure: as §1

[8] = target: epitope sequence SEQ ID No 30 ([…]) (SARS-CoV-2); experiment: RepliTope peptide microarray, Cy5 fluorescence
Procedure: as §1

[9] = target: epitope sequence SEQ ID No 25 ([…]) (SARS-CoV-2); experiment: RepliTope peptide microarray, Cy5 fluorescence
Procedure: as §1

[10] = target: epitope sequence SEQ ID No 27 ([…]) (SARS-CoV-2); experiment: RepliTope peptide microarray, Cy5 fluorescence
Procedure: as §1

[11] = target: T1, SARS-CoV-2 Spike protein-RBD-mFc …; experiment: SPR (Biacore T200), […], kinetic fit 1:1 binding, […]
[12] = target: T1, SARS-CoV-2 Spike protein-RBD-mFc …; experiment: as above; remark: listed apart in the source

B1: hcAb B10 (clone B10), camelid full length IgG2 heavy chain only antibody (antibody, V domains shown)
VH: DVQLQESGGGLVQPGGSLRLSCAASGDINTIGTMNWFRQAPGKGREFVALITSGGTTNYADSVKGRFTVSRDNAKNTVYLQMNSLKPEDTAVYHCYGADHYSDYWGQGTQVTVSS
notes: also called mAb B10
Kd [1]: 0.39 nM | average signal intensity [2]: 15200 mean pixel value | average signal intensity [3]: 14000 mean pixel value | average signal intensity [4]: 800 mean pixel value | average signal intensity [5]: 48600 mean pixel value | average signal intensity [6]: 353 mean pixel value | average signal intensity [7]: 18100 mean pixel value | average signal intensity [8]: 644 mean pixel value | average signal intensity [9]: 750 mean pixel value | average signal intensity [10]: 14000 mean pixel value | Kd [11]: 0.397 nM | koff [11]: 0.000463 s⁻¹ | kon [11]: 1.17e+06 M⁻¹ s⁻¹ | Kd [12]: 0.372 nM and 0.385 nM | koff [12]: 0.000454 s⁻¹ and 0.000459 s⁻¹ | kon [12]: 1.22e+06 M⁻¹ s⁻¹ and 1.19e+06 M⁻¹ s⁻¹
